Assay: yeast display, Sf9 membrane polyspecificity reagent, FACS + sequencing; frameworks hold sequencing errors
In short: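 After 36–48 hours of galactose induction, yeast (Saccharomyces cerevisiae BJ5465) displaying a synthetic nanobody library were stained at 4 °C for 1 hour with 10% biotinylated, detergent-solubilized Sf9 membrane reagent. Streptavidin microbeads enriched the stained cells before FACS sorting into low and high (top ~1%) gates on anti-HA and streptavidin fluorescence. Each clone's polyreactivity label reflects its gate of origin.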

Sequence | polyreactivity (PSR sort gate)
QVQLVESWGGLVQAGGSLRISCAASGRISYGYAMGWYRQAPGKERELVAAISRSGGTTYYADSVKGRFTISRDNAKNTVYLQMNSLNPEDTAVYYCAAGDAYYTEALPFGDYDYWGQGTQVTVSS | low polyreactivity
QVQLVESWGGLVQAGGSLRLSCAASGFIFTLYAMGWYRQATGKEREFVAAISWSDGSTTYADSVKGRFTISRDNAKTTVYLQMNSLKPEDTAVYYCAAVTSSYIRGLVYHFYYWGQGTQVTVSS | low polyreactivity
QVQLVESWGGLVQAGGSLRLSCAASGFIFYRYAMGWYRQAPGKERELVAVISVSGGSTYADSVKGRFTISRDNAKNTVYLQMNSLKPEDTAVYYCAARRYSYYRVHGTRHDYWGQGTQVTVSS | high polyreactivity
QVQLVESWGGLVQAGGSLRLSCAASGFTFAYNTMGWYRQAPGTEREWVAAISSSGGSTYYADSVKGRFTISRDNAKNTVYLQMNSLKPEDTAVYDCAAPFWRSFWASDYCGQGTQVTVSS | high polyreactivity
QVQLVESWGGLVQAGGSLRLSCAASGFTFDNYPMGWYRQAPGKERELVAAIINSGGSTYYADSVKGRFTISRDNAKNTVYLQMNSLKPEDTAVYYCAARILPFRQWYRTYEYWGQGTQVTVSS | high polyreactivity
QVQLVESWGGLVQAGGSLRLSCAASGFTFNANAMGWYRQAPGKERELVAAISLSGGRTYYADSVKGRFTISRDNEKNTVYLQMNSLKPVDTAVYYCAASPDGSFRRFSRVVSGDYWGQGTQVTVSS | high polyreactivity
QVQLVESWGGLVQAGGSLRLSCAASGITFSNYAMGWYRQAPGKERELVAAISKRGGSTYYADSVKGRFTISRDTAKYTVYLQMNSLKPEDTAVYYCAAAGVRVYVRSVLDYWGQGTQVTVSS | high polyreactivity
QVQLVESWGGLVQAGGSLRLSCAASGLIFKVYAMGWYRQAPGKERELVAAITYSGGSTDYADSVKGRFTISRDNAKNTVYLQMNSLKPEDTAVYYCNVEKVGHVNSYGYDYWGQGTQVTVSS | low polyreactivity
QVQLVESWGGLVQAGGSLRLSCAASGLPSKLMLMVWYRQAPGKERELVAAISSSGGRTYYADSVKGRFTISRDNAKITVYLQMNSLKPEDTAVYYCAAYFPRTLFEFGYWGQGNQVTVSS | high polyreactivity
QVQLVESWGGLVQAGGSLRLSCAASGLTFNYYDMGWYRQAPGKERELVAAISRSGTNTSYADSVKGRFTISRDNAKNTVYLQMNSLKPEDTAVYYCNAAGVYLAAGPYTANFNYNYWGQGTQVTVSS | low polyreactivity
QVQLVESWGGLVQAGGSLRLSCAASGRIFDPYAMGWYRQAPGKERELVATITLRGGITYYADSVKGRFTISRDNAKNTVYLEMNSLKPEDTAVYYCAKKVRYYVRWEYDYWGQGTQVTVSS | low polyreactivity
QVQLVESWGGLVQAGGSLRLSCAASGRIFGRYAMGWYRQAPGKERELVAAIRSTGSTNYADSVKGRFTISRDNAKNTVYLQMNSLKPEDTAVYYCAAYRRRTYAVNKEGGYWGQGTQVTVSS | high polyreactivity
QVQLVESWGGLVQAGGSLRLSCAASGSIFSVYAMGWYRQAPGKERELVAAITSGGGTKYADSLKGRFTISRDNAKNTVYLQMNSLKPEDTAVYYCAAESFSDGSPYNYWGQGTQVTVSS | low polyreactivity
QVQLVESWGGLVQAGGSLRLSCAASGSTFAGYAMGWYRQAPGKERELVAAIDWGGDSTYYADSVKGRFTISRDNAKNTVYLQMNSLKPEDTAVYYCAAYWYSRYDYDYWGQGTQVTVSS | low polyreactivity
QVQLVESWGGLVQAGGSLRLSCAASGSTFGYYAMGWYRRAPGNEMELVAALSSSSSTNYADSVKGRFTISRDNAMNTVYLQMNRLIPEETAVYYCASDPYWLHWTFDYWGQGSQVTVSS | low polyreactivity
QVQLVESWGGLVQAGGSLRLSCAASGSTFRPYAMGWYRQAPGKERELVAAFRSGRTSYADSVKGRFTISRDNAKNTVYLQMNSLKPEDTAVYYCAKASRGGYYWGQGTQVTVSS | high polyreactivity
QVQLVESWGGLVQAGGSLRLSCAASGSTFRSNAMGWYRQAPGKERELVAAITGSGGSTYYADSVKGRYTISRDNAKNTVYLQMNSLKPEDTAVYYCWGLGTQVTVSS | low polyreactivity
QVQLVESWGGLVQAGGSLRLSCAASGSTFYRYAMGWSRQAPGKERELVAAINTGGSTNYADSVKGRFTISRDNAKNTVYLQMNSLKPEDTAVYYCAARFQYYRKYDYWGQGTQVTVSS | low polyreactivity
QVQLVESWGGLVQAGGSLRLSCAASGSTSVYYAMGWYRQTPGKERELVDAITWDDGSTSYADSVKGRFTISRDNAKNTVYLQMNSLKPEDTEVYYCAKDYEYLGAFNYWGQGTQVTGSS | low polyreactivity
QVQLVESWGGLVQAGGSLRLSCADSGYIYDHYDMGWYRQAPGKDRELVAAISRSAGSTYYADSVKGRFTITRDNAKNTVYLQMNSLKPEDSAVYYCAADGKYYHRRPGWPIYDYWGQGTQVTVSS | high polyreactivity
QVQLVESWGGLVQAGGSLRLSCADSGYTFYTNAMGWYREAPGKERELVAAISIGGNTNYADSVKGRFTISRDNAKNTVYLQMNSLKPEDTAVYYCAKAWSGISSRDYDLDYWGQGTQVTVSS | low polyreactivity
QVQLVESWGGLVQAGGSLRLSCGASGYSFQPYTMGWYRQAPGKERELVAAISKSGTRTYYADSVKGRFTISRDNAKNTVYLQMNSLKPEDTAVYYCAARYTGNLFDYWGQGTQVTVSS | high polyreactivity

Sequence | polyreactivity (PSR sort gate)
QVQLVESWGGLVQAVGSLRLTCAASGVIFAIYAIGLYRQAAGKEREMVSSIRWSSGRTYYPDSVKGRFTISRDNAKNTVYLQMNSLKPEDTAVYNCAATPSIFTIHRQDYDYWGQGTQVTVSS | high polyreactivity
QVQLVESWGGLVQPGGSLRLRCAASGLIFGRNAMGWYRQAPGKERELVAAISWSGGSTYYADSVKGRFTISRDNAKNTVYLQMNSLKPEDTAVYYCYRYRYYGSEDDYWGQGTQVTVSS | high polyreactivity
QVQLVESWVGLVQAGGSLRLSCAASGNTFKYYDMGWYRQAPGKERELVATISRTAGSTYYADSVKGRFSISRDYAKNTVYLQMNSLKPEDTAVYYCNKDRGHPFKYDYWGQGTQVTVSS | low polyreactivity
QVQLVETGAGLVQAGGSLRLSCAASGRTYVYNAMGWYRQAPGKERELVAAIDGGGDRTYYADSVKGRFTISRDNAKNTVYLQMNSRKPEDTAVYYCARDQGDTYYYSYPEGDYWGQGTQVTVSS | low polyreactivity
QVQLVETGAGLVQAGGSLRLSSAASGFIFYPYAMGWYRQAPGKERELVAVINKSSDNTYYADSVKGRFTISRDNAKNTVYLQMNSLKPEDTAVYYCAAEYVFYSRFFTEEYWGQGTQVTVSS | low polyreactivity
QVQLVETGGGIVQAGASLRLSCAASGRIFPPYAMGWYRQAPGKERELVAAISSSGGSTYYADSVKGRFTISRDNGKNTVYLQMNSLKPEDTAVYYCATFFARGYNSWGQGTQVTVSS | high polyreactivity
QVQLVETGGGIVQAVGSLRLSCAASGSTFGWNAMGWNRQAPGKERELVAVISSDGRTYYADSVKGRFTISRDNAKNTVYLQMISLKPEDTAVYYCAKRAWGFGGYDYWGQGTQVTVSS | low polyreactivity
QVQLVETGGGLFQAGGSLRISCAASGFIFTLYAMGWYRQAPGKERELVAAINSGGSTDYADSVKGRFTISRDNAKNTVYLQMNSLKPEDTAVYYCAAGNTYAGSDYWGQGTQVTVSS | low polyreactivity
QVQLVETGGGLVQAGGRLRLSCAASGRILPGNAMGWSRQAPGKERELVAAISSGGRTNYADSVKGRFTISRDNAKNTVYLQMNSLKPEESAVYYCAKRTVWWSNWHYYPPTYNYWGQGTQVTVSS | high polyreactivity
QVQLVETGGGLVQAGGRLRLSCAASGSIFPDYDMGWYRQAPGKQRELVAAISSSGDSTYYADSVKGRFTISRDNAKNTVYLLMNSLKPEDTAVYYCAVDGTRSTSNGSEFTGYNYWGQGTQVTVSS | low polyreactivity
QVQLVETGGGLVQAGGSLRISCAASGRIFGWYAMGWYRQAPGKERELVAGINYGGGRTYYADSVKGRFTISRDNAKNTVYLQMNSLKPEDTAVYYCAAGISGHYYWGQGTQVTVSS | high polyreactivity
QVQLVETGGGLVQAGGSLRISCAPSGRTFRNNDMAWYRQAPGTEREFVAVISNTGGSTYYADSVKGRFTNSRDNAKNTVYLQMNSLKPEDTAVYYCAVRPRYSQYYYWGQGTQVTVSS | high polyreactivity
QVQLVETGGGLVQAGGSLRISCAPSGSTFAGYAMGWYRQAPGKERELVAAISYSGGTTYYADSVKGRFTISRDNAKNTVYLQMNSLKPEDTAVYYCAARKKYKTPSNDMYYWGQGTQVTVSS | high polyreactivity
QVQLVETGGGLVQAGGSLRLICAASGRIFTWYAMGWYRQGPGKERELVATNSYNGGRTYYADSVKGRFTISRDNAKNTVYLQMNSLKPEDNAVYYCNTVPVGSVSHGLDSRFGYWGQGTQVTVSS | high polyreactivity
QVQLVETGGGLVQAGGSLRLICAASGSTFQNNAMGCYIQAPGKERELVAAIRFSGGSTYYADSVKGRFTISRDNAKNTVYLQMNSLKPEDTAVYYCNAVVKRWSDYSYPVRYDYWGQGTQVTVSS | high polyreactivity
QVQLVETGGGLVQAGGSLRLRGAASGSTNYNYAMGWYRQAPGKERELVAAISISGGSPYYADSVKGRFTISRDNANNTVYLQMYSLKAEDTAVYYCAAVRLGSRGGYCGQGTQVTVSS | high polyreactivity
QVQLVETGGGLVQAGGSLRLSCAASGCTFKYNTMGWYRQAPGKERELVAAITSGGGSTNYADSVKGRFTISRDNAKNTVYLQMNSLKPEDTAVYYCAAYRRNTYWGQVTQVTVSS | high polyreactivity
QVQLVETGGGLVQAGGSLRLSCAASGFIFRKYAMGWYRQAPGKERELVAAITASGGSTYYADSVKGRFTISRDNAKNTVYLQMNSLKPEDTAVYYCATDYHGAERWLKYVYWGQGTQVTVSS | high polyreactivity
QVQLVETGGGLVQAGGSLRLSCAASGFIFVKYAMGWYRQAPGKERELVAAITTSGTGTFYADSVKGRFTISRDNAKNTVYLQMNSLKPVDTAVYYCNALGHPGDDWGQVTQVTVSS | low polyreactivity
QVQLVETGGGLVQAGGSLRLSCAASGFTFASYAMGWYRQAPGKERELVAAITWGTGTTSYADSVKGRFTISRDNAKNTVYLQMNSLKPEDTAVYYCATRYRQITYRRRYDYWGQGTQVTVSS | low polyreactivity
QVQLVETGGGLVQAGGSLRLSCAASGFTFGSNAMGWYRQAPGKEREFVAAITYSGGGTYADSVKGRFTISRDNAKHTVDLQMNSLKPEDTAVYYCATDAYRWHYWNFGFGYWGQGTQVTVSS | high polyreactivity

From the nanobody polyreactivity screen of Harvey et al. (2022)
